According to paper PMC7864074, “Functions of Gle1 are governed by two distinct modes of self-association” (The Journal of Biological Chemistry, 2020):

Tests used:
[1] = target: SspB-Gle1^152–360 fusion protein (E. coli | human) (UniProt Q53GS7); assay: SEC-MALS; ACCORD (forced dimerization by SspB); Superose 6 10/300 GL; 20 mM HEPES (pH 7.6), 200 mM NaCl, 5% glycerol, 0.5 mM TCEP, 0.05% azide
[2] = target: the molecule itself; assay: SEC; S200 size-exclusion chromatography; 20 mM HEPES, pH 7.5, 200 mM NaCl, 0.5 mM TCEP, 10% glycerol; MBP as a size reference
[3] = target: the molecule itself; assay: native gel or EMSA; 4–15% acrylamide gradient native PAGE, 150 V for 90 min, Coomassie staining

Molecule | binding result [2] | other results
SspB-Gle1^152–360 fusion protein (from UniProt Q53GS7 152-360) |  | stoichiometry N [1]: 2
MBP-Gle1^1–152 (domain or fragment, human, UniProt Q53GS7 1-152, looked up, source: E. coli Rosetta, purified (amylose resin eluted with maltose, ion exchange); not shown: MBP, N-terminal, kept) MPSEGRCWETLKALRSSDKGRLCYYRDWLLRREDVLEECMSLPKLSSYSGWVVEHVLPHMQENQPLSETSPSSTSASALDQPSFVPKSPDASSAFSPASPATPNGTKGKDESQHTESMVLQSSRGIKVEGCVRMYELVHRMKGTEGLRLWQE | binds | 
Gle1^152–360 (domain or fragment, human, UniProt Q53GS7 152-360, looked up, also called coiled-coil domain; source: E. coli Rosetta, purified (amylose resin, on-column cleavage, 30% ammonium sulfate precipitation, S200 SEC)) EEQERKVQALSEMASEQLKRFDEWKELKQHKEFQDLREVMEKSSREALGHQEKLKAEHRHRAKILNLKLREAEQQRVKQAEQERLRKEEGQIRLRALYALQEEMLQLSQQLDASEQHKALLKVDLAAFQTRGNQLCSLISGIIRASSESSYPTAESQAEAERALREMRDLLMNLGQEITRACEDKRRQDEEEAQVKLQEAQMQQGPEAH |  | binding result [3]: binds
Gle1^(1–360 8D) (domain or fragment, human, UniProt Q53GS7 1-360, looked up, source: E. coli Rosetta, purified) MPSEGRCWETLKALRSSDKGRLCYYRDWLLRREDVLEECMSLPKLSSYSGWVVEHVLPHMQENQPLSETSPSSTSASALDQPSFVPKSPDASSAFSPASPATPNGTKGKDESQHTESMVLQSSRGIKVEGCVRMYELVHRMKGTEGLRLWQEEQERKVQALSEMASEQLKRFDEWKELKQHKEFQDLREVMEKSSREALGHQEKLKAEHRHRAKILNLKLREAEQQRVKQAEQERLRKEEGQIRLRADYADQEEMLQDSQQDDASEQHKALLKVDLAAFQTRGNQLCSLISGIIRASSESSYPTAESQAEAERADREDRDLDMNDGQEITRACEDKRRQDEEEAQVKLQEAQMQQGPEAH | binds | 
Gle1^1–360 (domain or fragment, human, UniProt Q53GS7 1-360, looked up, human Gle1, N-terminal region, residues 1-360; also called WT Gle1^1–360; Gle1 N-terminal region; source: E. coli Rosetta, purified (amylose resin, on-column cleavage, S200 SEC)) MPSEGRCWETLKALRSSDKGRLCYYRDWLLRREDVLEECMSLPKLSSYSGWVVEHVLPHMQENQPLSETSPSSTSASALDQPSFVPKSPDASSAFSPASPATPNGTKGKDESQHTESMVLQSSRGIKVEGCVRMYELVHRMKGTEGLRLWQEEQERKVQALSEMASEQLKRFDEWKELKQHKEFQDLREVMEKSSREALGHQEKLKAEHRHRAKILNLKLREAEQQRVKQAEQERLRKEEGQIRLRALYALQEEMLQLSQQLDASEQHKALLKVDLAAFQTRGNQLCSLISGIIRASSESSYPTAESQAEAERALREMRDLLMNLGQEITRACEDKRRQDEEEAQVKLQEAQMQQGPEAH | binds | 
Gle1^(1–360 Δ45–54) (domain or fragment, human, UniProt Q53GS7 1-360, looked up, also called Gle1^(1–360 45–54); source: E. coli Rosetta, purified (amylose resin, on-column cleavage, S200 SEC)) MPSEGRCWETLKALRSSDKGRLCYYRDWLLRREDVLEECMSLPKHVLPHMQENQPLSETSPSSTSASALDQPSFVPKSPDASSAFSPASPATPNGTKGKDESQHTESMVLQSSRGIKVEGCVRMYELVHRMKGTEGLRLWQEEQERKVQALSEMASEQLKRFDEWKELKQHKEFQDLREVMEKSSREALGHQEKLKAEHRHRAKILNLKLREAEQQRVKQAEQERLRKEEGQIRLRALYALQEEMLQLSQQLDASEQHKALLKVDLAAFQTRGNQLCSLISGIIRASSESSYPTAESQAEAERALREMRDLLMNLGQEITRACEDKRRQDEEEAQVKLQEAQMQQGPEAH | binds | 
